Reference: patent publication US20230167164A1 (IMMUNOWAKE, published 2023)
Where a chain is given by its changes, count along the chain named. Names may count otherwise.

B1: PD-L1(mut4)-Fc (Fc fusion)
chain 1: FTVTVPKDLYVVEYGSNMTIECKFPVEKQLDLAALQVYWMMEDKNIIQFVHGEEDLKVQHSSYRQRARLLKDQLSLGNAALQITDVKLQDAGVYRCLIAYKGADYKRITVKVNAPYNKINQRILVVDPVTSEHELTCQAEGYPKAEVIWTSSDHQVLSGKTTTTNSKREEKLFNVTSTLRINTTTNEIFYCTFRRLDPEENHTAELVIPELPLAHPPNERDKTHTCPPCPAPEDEGGPSVFLFPPKPKDTLMISRTPEVTCVVVDVSHEDPEVKFNWYVDGVEVHNAKTKPREEQYNSTYRVVSVLTVLHQDWLNGKEYKCKVSNKALPAPIEKTISKAKGQPREPQVYVYPPSREEMTKNQVSLTCLVKGFYPSDIAVEWESNGQPENNYKTTPPVLDEDGSFALVSKLTVDKSRWQQGNVFSCSVMHEALHNHYTQKSLSLSPGK
chain 2: B1 chain 1 with D234K, E235K, Y351L, T366L, N390R, K392M, T394W, E400S, A405F, V407Y
notes: also called I54Q/E58M/M115L/S117A/G119K
B2: PD-L1(mut6)-Fc (Fc fusion)
chain 1: B1 chain 1 with R95T, A99S
chain 2: FTVTVPKDLYVVEYGSNMTIECKFPVEKQLDLAALQVYWMMEDKNIIQFVHGEEDLKVQHSSYRQRARLLKDQLSLGNAALQITDVKLQDAGVYTCLISYKGADYKRITVKVNAPYNKINQRILVVDPVTSEHELTCQAEGYPKAEVIWTSSDHQVLSGKTTTTNSKREEKLFNVTSTLRINTTTNEIFYCTFRRLDPEENHTAELVIPELPLAHPPNERDKTHTCPPCPAPEKKGGPSVFLFPPKPKDTLMISRTPEVTCVVVDVSHEDPEVKFNWYVDGVEVHNAKTKPREEQYNSTYRVVSVLTVLHQDWLNGKEYKCKVSNKALPAPIEKTISKAKGQPREPQVYVLPPSREEMTKNQVSLLCLVKGFYPSDIAVEWESNGQPENRYMTWPPVLDSDGSFFLYSKLTVDKSRWQQGNVFSCSVMHEALHNHYTQKSLSLSPGK
notes: also called PD-L1(I54Q/E58M/R113T/M115L/G119K)
B3: PD-L1(mut7)-Fc (Fc fusion)
chain 1: B1 chain 1 with R95T, K101G
chain 2: B2 chain 2 with S99A, K101G
notes: also called PD-L1(I54Q/E58M/R113T/M115L/S117A)
B4: PD-L1(mut5)-Fc (Fc fusion)
chain 1: B1 chain 1 with R95T, L97M
chain 2: B2 chain 2 with L97M, S99A
notes: also called I54Q/E58M/R113T/S117A/G119K
B5: IL-2(R38D/K43E/E61R)/PD-L1(mut2)-Fc (Fc fusion)
chain 1: FTVTVPKDLYVVEYGSNMTIECKFPVEKQLDLAALQVYWMMEDKNIIQFVHGEEDLKVQHSSYRQRARLLKDQLSLGNAALQITDVKLQDAGVYTCLIAYKGADYKRITVKVNAPYNKINQRILVVDPVTSEHELTCQAEGYPKAEVIWTSSDHQVLSGKTTTTNSKREEKLFNVTSTLRINTTTNEIFYCTFRRLDPEENHTAELVIPELPLAHPPNERGGGSGAPTSSSTKKTQLQLEHLLLDLQMILNGINNYKNPKLTDMLTFEFYMPKKATELKHLQCLERELKPLEEVLNLAQSKNFHLRPRDLISNINVIVLELKGSETTFMCEYADETATIVEFLNRWITFCQSIISTLTGGGGSGGGDKTHTCPPCPAPEKKGGPSVFLFPPKPKDTLMISRTPEVTCVVVDVSHEDPEVKFNWYVDGVEVHNAKTKPREEQYNSTYRVVSVLTVLHQDWLNGKEYKCKVSNKALPAPIEKTISKAKGQPREPQVYVLPPSREEMTKNQVSLLCLVKGFYPSDIAVEWESNGQPENRYMTWPPVLDSDGSFFLYSKLTVDKSRWQQGNVFSCSVMHEALHNHYTQKSLSLSPGK
chain 2: FTVTVPKDLYVVEYGSNMTIECKFPVEKQLDLAALQVYWMMEDKNIIQFVHGEEDLKVQHSSYRQRARLLKDQLSLGNAALQITDVKLQDAGVYTCLIAYKGADYKRITVKVNAPYNKINQRILVVDPVTSEHELTCQAEGYPKAEVIWTSSDHQVLSGKTTTTNSKREEKLFNVTSTLRINTTTNEIFYCTFRRLDPEENHTAELVIPELPLAHPPNERGGGGSGGGDKTHTCPPCPAPEDEGGPSVFLFPPKPKDTLMISRTPEVTCVVVDVSHEDPEVKFNWYVDGVEVHNAKTKPREEQYNSTYRVVSVLTVLHQDWLNGKEYKCKVSNKALPAPIEKTISKAKGQPREPQVYVYPPSREEMTKNQVSLTCLVKGFYPSDIAVEWESNGQPENNYKTTPPVLDEDGSFALVSKLTVDKSRWQQGNVFSCSVMHEALHNHYTQKSLSLSPGK
B6: IL-2(L18R/Q22E/R38D/K43E/E61R/Q126T)/PD-L1(mut2)-Fc (Fc fusion)
chain 1: B5 chain 1 with L243R, Q247E, Q351T
chain 2: B5 chain 2
B7: IL-2(L18R/Q22E/R38D/K43E/E61R/Q126T/S130R)/PD-L1(mut2)-Fc (Fc fusion)
chain 1: B5 chain 1 with L243R, Q247E, Q351T, S355R
chain 2: B5 chain 2
B8: IL-2(R38D/K43E/E61R/Q126T)/PD-L1(mut2)-Fc (Fc fusion)
chain 1: B5 chain 1 with Q351T
chain 2: B5 chain 2
B9: IL-2(L18R/Q22E/R38D/K43E/E61R)/PD-L1(mut2)-Fc (Fc fusion)
chain 1: B5 chain 1 with L243R, Q247E
chain 2: B5 chain 2

These binders were tested against T1, mouse PD-1 (mouse, UniProt Q02242 25-167, limits assumed) (assay: PD-L1-Fc format, calibrated on PD-L1(wt)-Fc binding affinity).
T1 construct: also called mPD-1
T1 sequence (looked up): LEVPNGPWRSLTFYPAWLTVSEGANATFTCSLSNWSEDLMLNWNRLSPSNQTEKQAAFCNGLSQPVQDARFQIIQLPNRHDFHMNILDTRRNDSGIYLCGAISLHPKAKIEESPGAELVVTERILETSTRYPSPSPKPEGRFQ

Row | Binder | Kd
1 | B1 | 980 nM
2 | B2 | 420 nM
3 | B3 | 110 nM
4 | B4 | 1100 nM

The binders below were run against T2, human PD-1 (human, UniProt Q15116 25-167, limits assumed) in the same assay as above.
T2 construct: nivolumab is called an anti-human PD-1 antibody; also called hPD-1
T2 sequence (Q15116 25-167 limits assumed): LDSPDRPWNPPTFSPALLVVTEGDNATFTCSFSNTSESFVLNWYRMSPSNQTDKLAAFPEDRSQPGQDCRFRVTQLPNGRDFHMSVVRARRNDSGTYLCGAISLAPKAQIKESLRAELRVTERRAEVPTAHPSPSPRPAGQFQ

Row | Binder | Kd
5 | B1 | 1090 nM
6 | B2 | 555 nM
7 | B3 | 98 nM
8 | B4 | 1200 nM

What follows are binders tested against T3, human IL-2 receptor (human, UniProt P01589 22-272; P14784 27-551; P31785 23-369) (assay: cell-based or functional assay).
T3 sequence (looked up) 1: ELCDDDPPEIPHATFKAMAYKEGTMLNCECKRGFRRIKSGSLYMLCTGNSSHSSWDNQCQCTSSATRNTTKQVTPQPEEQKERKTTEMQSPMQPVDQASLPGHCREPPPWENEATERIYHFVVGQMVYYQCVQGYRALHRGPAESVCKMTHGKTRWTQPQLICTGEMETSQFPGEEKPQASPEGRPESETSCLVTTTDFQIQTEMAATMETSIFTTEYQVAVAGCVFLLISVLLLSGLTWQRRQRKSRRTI
T3 sequence (looked up) 2: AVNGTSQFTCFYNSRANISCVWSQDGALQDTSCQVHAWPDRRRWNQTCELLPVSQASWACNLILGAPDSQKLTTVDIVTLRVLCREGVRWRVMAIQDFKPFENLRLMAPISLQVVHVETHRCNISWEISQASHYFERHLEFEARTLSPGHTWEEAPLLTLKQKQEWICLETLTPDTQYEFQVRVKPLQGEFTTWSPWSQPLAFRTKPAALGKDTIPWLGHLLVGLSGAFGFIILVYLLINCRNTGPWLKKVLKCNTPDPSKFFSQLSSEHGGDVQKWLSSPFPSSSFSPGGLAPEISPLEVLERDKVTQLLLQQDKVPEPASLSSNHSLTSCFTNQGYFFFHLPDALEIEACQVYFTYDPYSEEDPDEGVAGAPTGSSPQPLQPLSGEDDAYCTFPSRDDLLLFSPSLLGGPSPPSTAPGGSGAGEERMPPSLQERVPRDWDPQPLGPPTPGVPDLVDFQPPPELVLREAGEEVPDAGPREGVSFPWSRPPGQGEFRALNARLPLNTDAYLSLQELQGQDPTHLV
T3 sequence (looked up) 3: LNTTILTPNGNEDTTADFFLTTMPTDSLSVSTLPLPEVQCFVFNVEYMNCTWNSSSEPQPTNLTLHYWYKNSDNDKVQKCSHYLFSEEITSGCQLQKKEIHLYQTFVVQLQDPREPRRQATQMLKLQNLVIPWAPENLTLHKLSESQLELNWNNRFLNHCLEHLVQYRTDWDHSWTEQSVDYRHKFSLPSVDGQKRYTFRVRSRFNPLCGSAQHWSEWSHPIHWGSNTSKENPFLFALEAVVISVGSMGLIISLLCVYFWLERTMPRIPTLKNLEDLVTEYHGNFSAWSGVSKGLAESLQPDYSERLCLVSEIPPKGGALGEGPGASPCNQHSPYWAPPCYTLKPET

Row | Binder | IL-2 signal transduction, % of rIL2, HEK-IL-2 cells
9 | B5 | 16%
10 | B6 | < 0.1%
11 | B7 | < 0.1%
12 | B8 | 2%
13 | B9 | 4%

What follows are binders tested against human PD-1 overexpressed on HEK-Blue reporter cells (human, UniProt Q15116 25-288) (assay: cell-based or functional assay).
human PD-1 overexpressed on HEK-Blue reporter cells, sequence (Q15116 25-288): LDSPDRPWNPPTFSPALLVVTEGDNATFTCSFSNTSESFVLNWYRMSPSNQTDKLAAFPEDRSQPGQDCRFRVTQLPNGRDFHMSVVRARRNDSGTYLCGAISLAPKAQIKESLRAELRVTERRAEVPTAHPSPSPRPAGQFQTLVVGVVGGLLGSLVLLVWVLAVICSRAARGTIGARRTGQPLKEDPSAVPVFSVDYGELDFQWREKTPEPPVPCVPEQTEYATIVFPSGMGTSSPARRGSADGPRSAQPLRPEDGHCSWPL

Row | Binder | IL-2 signal transduction, % of rIL2, HEK-IL-2-PD-1 cells
14 | B5 | 76%
15 | B6 | 5%
16 | B7 | < 0.1%
17 | B8 | 20%
18 | B9 | 35%
